The text below walks through data of PMC2743916 (Structure (London, England : 1993), 2008).

In one data set the target is T1, Spt4 (residues 1-99) (S. cerevisiae, UniProt P32914 1-99).
T1 sequence (looked up): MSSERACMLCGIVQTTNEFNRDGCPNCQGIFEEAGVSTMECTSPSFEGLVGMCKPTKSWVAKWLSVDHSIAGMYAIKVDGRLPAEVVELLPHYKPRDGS
As to the kind of experiment: crystal structure.

The data set “crystal structure” deals with the molecule itself. The data set is described as follows: crystal structure.

B1: Spt5NGN domain (residues 285-375) (domain or fragment, S. cerevisiae, UniProt P27692 285-375, looked up)
chain: ATIWGVRCRPGKEKELIRKLLKKKFNLDRAMGKKKLKILSIFQRDNYTGRIYIEAPKQSVIEKFCNGVPDIYISQKLLIPVQELPLLLKPN
Turning to B1, the binding result with Spt4 (residues 1-99) is “binds”.

B2: Spt4/Spt5NGN fusion protein (other, S. cerevisiae)
chain: MSSERACMLCGIVQTTNEFNRDGCPNCQGIFEEAGVSTMECTSPSFEGLVGMCKPTKSWVAKWLSVDHSIAGMYAIKVDGRLPAEVVELLPHYKPRDGSGSATIWGVRCRPGKEKELIRKLLKKKFNLDRAMGKKKLKILSIFQRDNYTGRIYIEAPKQSVIEKFCNGVPDIYISQKLLIPVQELPLLLKPN
In the case of B2, in “crystal structure”, the binding result is “binds”.
